{"source": "paper PMC5263247", "about": "“Lipid Signaling via Pkh1/2 Regulates Fungal CO2 Sensing through the Kinase Sch9” (mBio, 2017)", "binders": {"B1": {"name": "ScCst6 (endogenous) (natural protein, UniProt P40535 1-587, looked up)", "chain": "MFTGQEYHSVDSNSNKQKDNNKRGIDDTSKILNNKIPHSVSDTSAAATTTSTMNNSALSRSLDPTDINYSTNMAGVVDQIHDYTTSNRNSLTPQYSIAAGNVNSHDRVVKPSANSNYQQAAYLRQQQQQDQRQQSPSMKTEEESQLYGDILMNSGVVQDMHQNLATHTNLSQLSSTRKSAPNDSTTAPTNASNIANTASVNKQMYFMNMNMNNNPHALNDPSILETLSPFFQPFGVDVAHLPMTNPPIFQSSLPGCDEPIRRRRISISNGQISQLGEDIETLENLHNTQPPPMPNFHNYNGLSQTRNVSNKPVFNQAVPVSSIPQYNAKKVINPTKDSALGDQSVIYSKSQQRNFVNAPSKNTPAESISDLEGMTTFAPTTGGENRGKSALRESHSNPSFTPKSQGSHLNLAANTQGNPIPGTTAWKRARLLERNRIAASKCRQRKKVAQLQLQKEFNEIKDENRILLKKLNYYEKLISKFKKFSKIHLREHEKLNKDSDNNVNGTNSSNKNESMTVDSLKIIEELLMIDSDVTEVDKDTGKIIAIKHEPYSQRFGSDTDDDDIDLKPVEGGKDPDNQSLPNSEKIK", "notes": "Transcription factor Cst6 (ATF/CREB family) of S. cerevisiae, endogenous protein of the wild type (BY4741); also called endogenous ScCst6; source: endogenous, S. cerevisiae WT lysate, immunopurified with anti-Cst6 antibody on protein-G Sepharose beads"}}, "target": "T1, ScSch9-His (S. cerevisiae, UniProt P11792 1-824)", "T1 construct": "Sch9 kinase of S. cerevisiae; SCH9 synthesized with a C-terminal 6xHis tag and cloned into the E. coli expression vector p41; also called recombinant ScSch9-His; source: E. coli BL21(DE3), purified (IMAC, Ni-NTA Sepharose); not shown: 6xHis, C-terminal, kept", "T1 sequence (looked up)": "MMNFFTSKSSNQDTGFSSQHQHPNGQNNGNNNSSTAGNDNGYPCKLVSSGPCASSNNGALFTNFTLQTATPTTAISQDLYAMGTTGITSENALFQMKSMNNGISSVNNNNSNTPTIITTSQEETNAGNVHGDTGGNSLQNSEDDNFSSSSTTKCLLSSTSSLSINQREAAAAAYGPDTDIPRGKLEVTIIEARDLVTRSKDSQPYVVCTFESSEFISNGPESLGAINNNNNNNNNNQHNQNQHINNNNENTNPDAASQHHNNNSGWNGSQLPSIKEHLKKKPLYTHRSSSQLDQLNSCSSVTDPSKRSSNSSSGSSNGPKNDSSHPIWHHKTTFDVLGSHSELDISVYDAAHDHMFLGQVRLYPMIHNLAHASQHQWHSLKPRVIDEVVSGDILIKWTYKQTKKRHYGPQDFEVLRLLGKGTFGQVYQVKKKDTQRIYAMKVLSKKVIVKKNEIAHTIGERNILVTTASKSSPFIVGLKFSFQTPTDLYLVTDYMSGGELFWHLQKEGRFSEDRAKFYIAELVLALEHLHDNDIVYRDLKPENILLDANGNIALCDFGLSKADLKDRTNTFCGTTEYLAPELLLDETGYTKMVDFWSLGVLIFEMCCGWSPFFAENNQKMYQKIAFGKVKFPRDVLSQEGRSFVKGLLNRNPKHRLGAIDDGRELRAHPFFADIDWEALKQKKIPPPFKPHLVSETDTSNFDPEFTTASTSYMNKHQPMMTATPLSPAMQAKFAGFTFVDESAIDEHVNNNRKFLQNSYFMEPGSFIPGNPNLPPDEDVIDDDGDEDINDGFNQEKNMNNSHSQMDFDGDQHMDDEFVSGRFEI", "experiment": "co-IP; endogenous ScCst6 precipitated from S. cerevisiae WT lysate with rabbit anti-Cst6 antibody, bound to protein-G Sepharose beads, washed (IP buffer plus 500 mM NaCl), then incubated with 20 µg recombinant ScSch9-His for 3 h at 4°C; extensive washing; Western blot (anti-ScCst6, anti-6xHis)", "details": "both partners purified"}
{"binder": "B1", "values": [{"measurement": "binding result", "result": "binds"}]}
